# Results from the supplement of paper PMC9112550, “Optimization of the antimicrobial peptide Bac7 by deep mutational scanning” (BMC Biology, 2022).
# System: Escherichia coli TOP10
# Assay: shrunken log2 fold change of peptide-encoding DNA abundance (4.5 h post-induction vs induction); higher = less antimicrobial activity (less host growth inhibition)
# Details: time post-induction: 4.5 h; library: site-saturation at positions 5, 18, 19, 20
# 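Further: peptides expressed intracellularly from a pBAD plasmid library in pooled LB shake-flask culture, induced with 0.3% L-arabinose, DNA abundance read by NGS, three biological replicates, DESeq2 with apeglm shrinkage.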
row,Sequence,shrunken log2 fold change
1,RRIRRRPPRLPRPRPRPQGMPRP,0.133
2,RRIRARPPRLPRPRPRPCCPPRP,-0.273
3,RRIRQRPPRLPRPRPRPVEWPRP,0.0152
4,RRIRGRPPRLPRPRPRPGVVPRP,1.43
5,RRIRPRPPRLPRPRPRPMGMPRP,0.0285
6,RRIRHRPPRLPRPRPRPTHQPRP,0.243
7,RRIRFRPPRLPRPRPRPPWRPRP,1.68
8,RRIRARPPRLPRPRPRPCTDPRP,-0.0325
9,RRIRPRPPRLPRPRPRPQFRPRP,-0.0113
10,RRIRVRPPRLPRPRPRPACVPRP,-0.0412
11,RRIRSRPPRLPRPRPRPEQNPRP,0.274
12,RRIRYRPPRLPRPRPRPMHFPRP,-0.00783
13,RRIRRRPPRLPRPRPRPVDIPRP,-0.0798
14,RRIRDRPPRLPRPRPRPLDEPRP,0.034
15,RRIRGRPPRLPRPRPRPGYCPRP,-0.183
16,RRIRYRPPRLPRPRPRPPHLPRP,-0.52
17,RRIRPRPPRLPRPRPRPQQGPRP,0.14
18,RRIRPRPPRLPRPRPRPKPAPRP,0.157
19,RRIRDRPPRLPRPRPRPDEDPRP,1.46
20,RRIRARPPRLPRPRPRPRLVPRP,0.512
21,RRIRGRPPRLPRPRPRPKFFPRP,0.36
22,RRIRRRPPRLPRPRPRPKSSPRP,-0.00897
23,RRIRQRPPRLPRPRPRPCCMPRP,-0.42
24,RRIRFRPPRLPRPRPRPACEPRP,-0.0985
25,RRIRIRPPRLPRPRPRPQEYPRP,-0.312

row,Sequence,shrunken log2 fold change
1,RRIRMRPPRLPRPRPRPQCWPRP,0.14
2,RRIRQRPPRLPRPRPRPWHYPRP,-0.484
3,RRIRCRPPRLPRPRPRPLFNPRP,-0.665
4,RRIRCRPPRLPRPRPRPFSHPRP,-0.608
5,RRIRMRPPRLPRPRPRPTFSPRP,0.386
6,RRIRQRPPRLPRPRPRPDIVPRP,-0.0164
7,RRIRARPPRLPRPRPRPYSRPRP,-0.0171
8,RRIRMRPPRLPRPRPRPVMHPRP,0.154
9,RRIRERPPRLPRPRPRPYWPPRP,-0.249
10,RRIRERPPRLPRPRPRPMFHPRP,-0.897
11,RRIRFRPPRLPRPRPRPGTSPRP,-0.0716
12,RRIRNRPPRLPRPRPRPVNGPRP,-0.372
13,RRIRNRPPRLPRPRPRPGYGPRP,-0.0142
14,RRIRMRPPRLPRPRPRPMFWPRP,0.0479
15,RRIRSRPPRLPRPRPRPSFAPRP,0.0497
16,RRIRDRPPRLPRPRPRPIRCPRP,-0.0116
17,RRIRVRPPRLPRPRPRPECDPRP,0.247
18,RRIRERPPRLPRPRPRPNDYPRP,-0.41
19,RRIRCRPPRLPRPRPRPFKPPRP,-0.302
20,RRIRYRPPRLPRPRPRPEYIPRP,-0.348
21,RRIRERPPRLPRPRPRPQVQPRP,0.029
22,RRIRYRPPRLPRPRPRPLFFPRP,-0.751
23,RRIRTRPPRLPRPRPRPVCTPRP,0.162
24,RRIRIRPPRLPRPRPRPEQIPRP,-9e-05
25,RRIRIRPPRLPRPRPRPSESPRP,-0.159

row,Sequence,shrunken log2 fold change
1,RRIRERPPRLPRPRPRPQRPPRP,-0.0471
2,RRIRHRPPRLPRPRPRPPRSPRP,0.704
3,RRIRMRPPRLPRPRPRPMRGPRP,1.53
4,RRIRARPPRLPRPRPRPNRRPRP,0.366
5,RRIRQRPPRLPRPRPRPGCPPRP,0.414
6,RRIRRRPPRLPRPRPRPPMVPRP,0.285
7,RRIRPRPPRLPRPRPRPDPEPRP,0.136
8,RRIRCRPPRLPRPRPRPADHPRP,0.0117
9,RRIRCRPPRLPRPRPRPDENPRP,-0.0357
10,RRIRARPPRLPRPRPRPHRQPRP,0.29
11,RRIRGRPPRLPRPRPRPNDIPRP,-0.528
12,RRIRERPPRLPRPRPRPREWPRP,0.325
13,RRIRIRPPRLPRPRPRPHIAPRP,-0.957
14,RRIRQRPPRLPRPRPRPPYWPRP,0.0656
15,RRIRARPPRLPRPRPRPKDRPRP,0.145
16,RRIRTRPPRLPRPRPRPFFAPRP,0.223
17,RRIRQRPPRLPRPRPRPFMKPRP,-0.0158
18,RRIRGRPPRLPRPRPRPKVEPRP,0.615
19,RRIRPRPPRLPRPRPRPWYLPRP,-0.591
20,RRIRVRPPRLPRPRPRPQAIPRP,-0.0973
21,RRIRIRPPRLPRPRPRPRVEPRP,-0.0648
22,RRIRYRPPRLPRPRPRPITEPRP,-0.101
23,RRIRSRPPRLPRPRPRPHVNPRP,-0.259
24,RRIRGRPPRLPRPRPRPKLCPRP,0.75
25,RRIRTRPPRLPRPRPRPQKAPRP,0.00748

row,Sequence,shrunken log2 fold change
1,RRIRRRPPRLPRPRPRPPDRPRP,0.21
2,RRIRTRPPRLPRPRPRPSVFPRP,-0.337
3,RRIRWRPPRLPRPRPRPGPPPRP,0.671
4,RRIRKRPPRLPRPRPRPRNHPRP,0.197
5,RRIRVRPPRLPRPRPRPLMCPRP,-0.268
6,RRIRVRPPRLPRPRPRPHWNPRP,-0.343
7,RRIRSRPPRLPRPRPRPDAKPRP,0.0687
8,RRIRVRPPRLPRPRPRPERGPRP,0.416
9,RRIRPRPPRLPRPRPRPACSPRP,0.184
10,RRIRRRPPRLPRPRPRPMFNPRP,-0.146
11,RRIRTRPPRLPRPRPRPNNAPRP,-0.303
12,RRIRLRPPRLPRPRPRPQSAPRP,-0.372
13,RRIRKRPPRLPRPRPRPVPRPRP,0.72
14,RRIRNRPPRLPRPRPRPCQHPRP,-0.0585
15,RRIRDRPPRLPRPRPRPKSVPRP,0.0458
16,RRIRPRPPRLPRPRPRPNSVPRP,-0.174
17,RRIRERPPRLPRPRPRPVTQPRP,-0.282
18,RRIRVRPPRLPRPRPRPYFGPRP,-0.0505
19,RRIRNRPPRLPRPRPRPDAAPRP,0.45
20,RRIRLRPPRLPRPRPRPNFHPRP,-0.301
21,RRIRPRPPRLPRPRPRPEIQPRP,0.07
22,RRIRCRPPRLPRPRPRPYAVPRP,-0.349
23,RRIRTRPPRLPRPRPRPDYDPRP,0.00888
24,RRIRMRPPRLPRPRPRPSEDPRP,0.974
25,RRIRWRPPRLPRPRPRPRPEPRP,0.502

row,Sequence,shrunken log2 fold change
1,RRIRQRPPRLPRPRPRPAIAPRP,0.0382
2,RRIRFRPPRLPRPRPRPRMNPRP,-0.173
3,RRIRPRPPRLPRPRPRPGKIPRP,-0.168
4,RRIRRRPPRLPRPRPRPAMCPRP,0.319
5,RRIRERPPRLPRPRPRPWERPRP,0.0496
6,RRIRTRPPRLPRPRPRPHGSPRP,-0.01
7,RRIRSRPPRLPRPRPRPKGAPRP,0.38
8,RRIRMRPPRLPRPRPRPHHFPRP,-0.00112
9,RRIRCRPPRLPRPRPRPFKQPRP,-0.0402
10,RRIRDRPPRLPRPRPRPLTEPRP,0.236
11,RRIRDRPPRLPRPRPRPQIPPRP,-0.085
12,RRIRFRPPRLPRPRPRPGDNPRP,-0.0236
13,RRIRMRPPRLPRPRPRPLEYPRP,0.0611
14,RRIRNRPPRLPRPRPRPKKAPRP,-0.0485
15,RRIRYRPPRLPRPRPRPHLYPRP,-1.35
16,RRIRERPPRLPRPRPRPETSPRP,0.122
17,RRIRDRPPRLPRPRPRPMRNPRP,0.416
18,RRIRLRPPRLPRPRPRPRRYPRP,-0.00737
19,RRIRCRPPRLPRPRPRPKKEPRP,0.00726
20,RRIRPRPPRLPRPRPRPGITPRP,-0.138
21,RRIRMRPPRLPRPRPRPMSKPRP,0.0165
22,RRIRERPPRLPRPRPRPVLIPRP,-0.153
23,RRIRWRPPRLPRPRPRPEPKPRP,0.393
24,RRIRSRPPRLPRPRPRPWNHPRP,-0.0307
25,RRIRSRPPRLPRPRPRPQHMPRP,-0.336

row,Sequence,shrunken log2 fold change
1,RRIRYRPPRLPRPRPRPVKCPRP,-1.32
2,RRIRWRPPRLPRPRPRPFQMPRP,-0.692
3,RRIRFRPPRLPRPRPRPHNCPRP,-0.3
4,RRIRVRPPRLPRPRPRPVNRPRP,-0.142
5,RRIRVRPPRLPRPRPRPPRKPRP,0.482
6,RRIRCRPPRLPRPRPRPRKLPRP,0.0902
7,RRIRCRPPRLPRPRPRPKVIPRP,-0.297
8,RRIRARPPRLPRPRPRPDGTPRP,0.288
9,RRIRDRPPRLPRPRPRPMTIPRP,0.0371
10,RRIRQRPPRLPRPRPRPCLVPRP,-0.252
11,RRIRMRPPRLPRPRPRPYYFPRP,-0.537
12,RRIRLRPPRLPRPRPRPHCYPRP,0.011
13,RRIRCRPPRLPRPRPRPEEWPRP,0.0214
14,RRIRVRPPRLPRPRPRPHVSPRP,0.108
15,RRIRVRPPRLPRPRPRPTVVPRP,0.0028
16,RRIRWRPPRLPRPRPRPQWFPRP,-0.27
17,RRIRFRPPRLPRPRPRPKIQPRP,-0.179
18,RRIRTRPPRLPRPRPRPHWCPRP,-0.00994
19,RRIRERPPRLPRPRPRPHVYPRP,-0.764
20,RRIRNRPPRLPRPRPRPMMTPRP,-0.312
21,RRIRVRPPRLPRPRPRPKVLPRP,-0.51
22,RRIRIRPPRLPRPRPRPAAHPRP,-0.0526
23,RRIRTRPPRLPRPRPRPLPRPRP,0.484
24,RRIRFRPPRLPRPRPRPNFFPRP,-0.178
25,RRIRNRPPRLPRPRPRPYSGPRP,0.00884
